Data on three compounds can be found in patent publication US20030219717A1, “Fluorophore complementation products” (priority 2002, published 2003).

Assay [1] concerns the target FKBP-CtermEYFP173 (human; Aequorea victoria) (UniProt P62942). The experiment in a line: cell-based or functional assay.
Assay [2] deals with FRB-CtermEYFP173 (human; Aequorea victoria) (UniProt P42345). As to the kind of experiment: cell-based or functional assay.
Assay [3] addresses FKBP / FRB (FKBP binding part of FRAP) interaction (Homo sapiens, UniProt P42345+P62942). As to the kind of experiment: Rapamycin-induced E[F64L]YFP fragment complementation (EYFP fluorescence) in stably transfected CHO-hIR cells. Format: cell-based. Particulars: CHO-hIR [PS1767+PS1768], 1 μM rapamycin.
Protocol: Probes were co-transfected in pairs into CHO-hIR cells (supra), PS1769 with PS1771 and PS1767 with PS1768, using the transfection agent FuGENE™ 6 (Boehringer Mannheim Corp, USA) according to the method recommended by the suppliers. Cells were cultured in growth medium (HAM's F12 nutrient mix with Glutamax-1, 10% foetal bovine serum (FBS), 100 μg penicillin-streptomycin mixture ml^−1 (GibcoBRL, supplied by Life Technologies, Denmark)). Transfected cells were cultured in this medium, with the addition of two selection agents appropriate to the plasmids being used, being 1 mg/ml zeocin plus 0.5 mg/mlG418 sulphate. […]
After 10 to 12 days culture in the continuous presence of the selection agents, the resulting cell lines were judged to be stably transfected. For fluorescence microscopy, aliquots of cells were transferred to Lab-Tek chambered cover glasses (Nalge Nunc International, Naperville USA) and allowed to adhere for at least 24 hours to reach about 80% confluence. Images were routinely collected using a Nikon Diaphot 300 inverted fluorescence microscope (Nikon Corp., Tokyo, Japan) using ×20 (dry) and/or ×40 (oil immersion) objectives and coupled to a Orca ER charged coupled device (CCD) camera (Hammamatsu Photonics K. K., Hammamatsu City, Japan). […]
This is easily accomplished through fluorescence activated cell sorting (FACS) methods. […]

Where only a bound is given, the exact number is not on record here.

Sequence of FKBP-CtermEYFP173 (human; Aequorea victoria) (P62942 other isoform, or with tags, fused parts or gaps, form in doubt): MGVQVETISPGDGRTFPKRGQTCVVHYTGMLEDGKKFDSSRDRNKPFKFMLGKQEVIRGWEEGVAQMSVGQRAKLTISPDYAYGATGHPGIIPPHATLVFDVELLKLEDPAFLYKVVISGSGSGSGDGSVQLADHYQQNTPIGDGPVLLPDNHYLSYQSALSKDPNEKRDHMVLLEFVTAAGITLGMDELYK

In assay [1], “NtermE[F64L]YFP172-FRB (from UniProt P42345 2025-2114)” came in with an EC50 of FK506 against 100 nM rapamycin, EYFP fluorescence/cell, 'mid to low-green' FACS group of 1.2 µM; an EC50 of rapamycin for EYFP fluorescence, 'black' FACS group, 7 and 30 hours of 0.1 µM; an EC50 of rapamycin for EYFP fluorescence, 'medium to low-green' FACS group, 7 and 30 hours of 0.25 µM; a half-time for development of fluorescence after 3 uM rapamycin of 5 h. For the same compound, in assay [1], the increase in EYFP fluorescence over the unstimulated value, 'black' FACS group was above 20 fold; the increase in EYFP fluorescence over the unstimulated value, 'medium to low-green' FACS group is above 20 fold; the proportion of cells with appreciable EYFP fluorescence before rapamycin (t=0) was below 5%; the proportion of cells with significantly greater EYFP fluorescence 4 hours after 1 uM rapamycin was found to be 40%. In assay [1], the proportion of responding cells 16 hours after 1 uM rapamycin was determined as 70%.
In assay [2], “NtermE[F64L]YFP172-FKBP (from UniProt P62942 1-108)” had an EC50 of FK506 against 100 nM rapamycin, EYFP fluorescence/cell, 'black' FACS group of 1.2 µM.
For the compound `CO[C@H]1C[C@@H]2CC[C@@H](C)[C@@](O)(O2)C(=O)C(=O)N2CCCC[C@H]2C(=O)O[C@H]([C@H](C)C[C@@H]2CC[C@@H](O)[C@H](OC)C2)CC(=O)[C@H](C)/C=C(\C)[C@@H](O)[C@@H](OC)C(=O)[C@H](C)C[C@H](C)/C=C/C=C/C=C/1C` [rapamycin], the “Proportion of cells with significantly greater EYFP fluorescence” value in assay [3] (after 4 hours) is reported as “approximately 40%”. Also, the “Proportion of the cell population encompassed by the EYFP fluorescence response” value in assay [3] (after 16 hours) was “approximately 70%”.
